Assay results from the NTF2 design screens of Basanta et al. (2020).

experiment: protease stability score; higher = more stable; yeast display proteolysis, trypsin and chymotrypsin;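 note: relative to predicted unfolded state with 0 unfolded-like and 1 meaning tenfold more protease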

Sequence	protease stability score
SETEHYSQKLLDLIVKAMRTGDEEMFERLLDPNTRELVDGQELHGREEWHHLWHRIDHLRIDHSEISHVNPIGEFIVVHMRVRMTLHINGKIHHYETEVIIIILKIDGRWLMHEVRFH	0.647
DEDDEFERLFWKKWVDALRTGNEEIIRKMVDPNVKIVFNGKELHGREAVDIVLKRIDHIDDIKLRHSRVVDGRVEITTKIHMKVGDKSIDSETHMSFEKIDGRWIITEMFFV	2.59
DHLEDDLDHYIRVLIKSWQTGDEELTEKLIDPRVRVEVGDKEFHGRKIFSEIAVHWRIKHHTIEHINTVGDKATIHSHVVLHFDGREITTTTIYFIEKVNGKWLLKSMHIQ	2.5
DEEIEEARHVFEEVIHNIQTGDEDAYETLMDPNVRLQVGEKKFHGRREVKEWLHEIRVRRYEIRPKDSDVIGEKVIVHGRVRIDGHYNGRDIDLEVQVHRIIVKINGRWFVHEVRIG	1.28
SEIERDAREFLRVLLEHLHTGDEDDLARLADPHVLIDIDGREIVGRELFREIWHEMGVNHTEYKDLDIQGNKLHIHINVNVNGKVRSLRIVVRKVNGRWFIEREHYE	1.52
DEEEKVIKDVVDMLRKALRTGDEERIRELADPDVRIEQGDKELHGRELWLEWLKEIRTERVILHVRRVRHFNGKIINEIEVRMDVRVGEFRHESTVSTILIMEKFNGRWHIRSMIIE	1.5
DEQKNWAKIMLELLEHAWRTGDEHTLQELADPNTRLNIGDKDIIGWDLILTVLIEIRMSFSYRLEEVHTFENHVVLRTRLIRVLHFDGKSTEFVKETELYIEKVDGRWILRHIVIK	1.29
SEEEEQVKEFIERWITMVKTGDEDFARKMADPNVRIEIGDKILHGRENMEHYMRRVIDEWRITHIHVNDSKVYGEYIVNEVHIHVRQGDKHHTINWELHVKKVNGRWRLQNVHFG	2.24
SEDEEKATEMIEQLSRAILTGDEHTLHKLLDPRTRIVVNGRRIHGRELWLKFFRELRFHSDDMHIHSQEVQGDKAFFDVHWLGTRNINGVKEHSHTKTEVILLKYNGKWIVEELRYE	2.17
HEDEHYMQRIAEDILKSFLTGDFDHIYRMADPHVKLIVGDKESIGRDDMETMLRIWLEILGADHLEVKDLKTRLVGDKIEVNVDNRIQIGDKLINVKIEIIFEKVNGRWKVSRITLKLR	1.5
DHEREDMRRFVQEVLRVIETGDEDIYMRLLDPHYKVDFNGREIIGREELLRFFRDLGVDRIEADKEDVRSQGDKVITNTHITVNGRRIEMRVIVIKIDGQWVLHSLEFR	1.2
DDEERANRELLELLIHSYRTGDWKLWHELVDPHVRTSLHQGEFEMKSIGRHYVRDIMTYMGVDHVELRHLEIQGDKLIMHLELDVNGRRLHVILFLSKINGVWILREEEIRFI	1.3
DEDEKSVKYAFTMYMQNITTGDEDTLKKYLDPNVKLHFNGVNLHGMESLNKWIREIRHRVRHVHFKDVRVIDGVLIVHIEWEVREDIDGQETEDRYIVRMIVLKIDGKWILRESQIL	1.74
REKDDLLHEFTERYMTAIETGDEETLEKLMDPDVKLHVGEYHDHGREDVSEWLRTHLEQWRIERIEIQHVDLQGDKLRVDLIVHARVGDKRIILHTILISRKINGRWHIKFFSMR	1.3
DKREEEVHELIRELVESIITGDFRHFFKLLDPHARSEVGDKELHGREQISDWLLKHIRRVKNITFKEVHFHELRVIGDKVEFHFDIRGVINGQDTTLEVEMKARKIDGRWHVEEIRFI	1.28
DEEEQAASHLEELIFRVIETGDWRNFYKMMDPDVRLDFNGQEYHGRENVTEAWHNSFHDLGIKHIELRTKNSQGDFLHLNFIVRYNGREFNVHFNWHVIDGRMKLIDIRVEHI	0.585
SEEEERLRENLERWHRALYTGDEEHLFNLADPHARFEIIVDGRDVRIHGRENYLRWVEEFRKELGISRVHTELKSEHVINGRNDEDGLVHINGRSLRVHFHLDVVDGRTKKIHIYVR	0.779
KELDEKVDTAIRIFHDVMLTGDEEKLIKLMDPNTRIRYNGRELHGWESHIKLREEELHELGVERVVHIFHNREIRAYDGVADIKGELEIRFNGRTVRHEFRIKFEKVNGRWVVREIEIH	1.31
DEDHEQAKRVFDELVDNTRTGDFDNLRKLMDPHARLVINGRNFIGREEVIRVMHEIRIETHRIRSIRIINGQARIDVESEVDINGRTEETRVEIIVFKVDGRWYLHTLRIV	1.99
DEDTELVYRIIKRLKEYIKTGDEDSIKELLDPNARIEVGDKEIHGRDRFAHMLVEIWSKDHKVELKDSRTFPNHLEYDGVLREDIEIDGKRIHRTRKLIVLVRKVNGRWYVEEIIFH	2.19
DHRDEVFEELVRLIIHFLETGDWKSLEELADPNVRVTVFYNGRQDNNIGRKQWAEAWERLLHLLGIKHHHMHRYHIQGDKIHIIMNFVVNGQEFTVHIDITVFNGRMKSSRIHVE	1.27
DESTRDFRQFFKLLVEHFKTGDWRRLADLFDPNVRVEINGRELHGRENIALWLRDRFKHLGVDHVHMRIRDLEVQGDKIRIHVELEIRVGDKVFYHETVLVIEKFDGRWIVHEEEYK	1.49
DEDEKDAERAVKHWIKLMHTGDEELLIRLFDPHTRVEIDGVEFHGREKVTELFREFTKRVKNVRIILRRYRIVGEWIEVDTEVRVGDKSSEVHLVILKVDGKWIMHVEHYK	1.85
EEAEQESKNFSEVVHRSLETGDEDNLMNNADPHVRSRIHVGDKRITSHGREVMELILERFKHARVVPTDIEVINGVAIIHMTMEYGDKELRIHLIFFKIDGKWILTHIIIRVD	0.056
DEERTLVEELIQIFVEALETGDFETLSKMFDPHALFLQGDKRFVGRKDIEKWIHDLVRRLGVNHIEIDKITVQGEKAHVDTRVHIGDKTSTIHILIVKVNGRWFVEEIRYH	1.17

Sequence	protease stability score
SEDEEEISEFTRMHLEDIITGDEDTLRRLVDPNVRIFIDGKHIHGMETYVKRLDENFKHLGVDHVEIRIHQIRLINGRARVDGVLIIEIGDKREERRTFLILLKVNGRWVMEEYRIH	1.07
DEDTENVLRALEQFDEKLLTGDWRSLEELADPHVRIDINGQDIHGRETHSEHFRRIKNLKLEHLDVHSFTVIGNKVELDTEIIGEIDGRRRIFRVRMRILKIDGRWVLHSVEIG	1.46
SEDEEKLQHMTHLFIHLEITGDEKLWTELADPNVRLDINGVEYHGREHVLRSWVELGIKVMRLHRRTAQGDKMHLDGTIDFNGRRYRIHVDVKIIDGKLKDTKQHIE	2.17
TEEEKKSEEFLKKLTHAWRTGNEDTLTHMMDPHVRIDFNGQELIGMEHARRLISELRVEDLEIESITHQGNKVHIRGRDLVLFNGQQRTIDTIFILKKVDGRWIIESIEFR	1.9
DDLHRNMKKVADLFIQVWLTGDFEELMHLFDPNVRLKVNGVEMHGRDDFAKFVKEHRERIDHMHFRLDELRIYGDKIVIHGTLHLHQGEKDWHHEVHIHLLVIDGVIRTVEEEER	2.08
SEDDEEKEEYLRKELEAHRTGDWRLFRELIDPHTKIHINGVLFVGWKDATRFFKEIRVKDHKVHRVRNIDGRIEMDGELNIDIDGREDIMIVHIRAKKVNGRWIVDSVEFR	1.19
DEEKKQVKDMMELYFRLFVTGNEEILTHLADPDTRIEIDGVSRVGMEEFKRMLEEYLKRLGADHIELRHWDIKFFNGRAINRLHIHIHYGDKSEDVRVTLILEKIDGRWRNRSEHREVG	0.771
DEEEKMHTKAVELTETILKTGDERIIKEMADPNTRVIFDGVDLHGMEHWTEFWRRLGFKHIEIRTTEVVDGRVIIIQHVRYNGKKHESHVYADKIDGRWLYTHVEIR	0.618
DEMRRDVDETLKELLEAWETGDEEKVSHLMDPNVRIHIGDKTLVGRELVREEVRHLRYHDYDVHHIRVIGEKADIDGVLDGNVNGRRENRKIHLHLLKVDGRWFFEETRFE	-0.004
DHHEEIMVTIMELLVRWLETGDEKSLVELLDPDVRHDVNGVDLHGREHVSRWMREHLERYDHLEVEITHIEVQGDKVHLDGTLILIFNGRNVVMKVHIHTIIVNGRAHELRFRTE	0.698
DERKHFFDIALEILKKTIKTGDEREHNENVDPRVKNDINGVELHGMETVSEFHLRLWEEMRVEEIHIRDLDIQGNKAVFHTSLRRRYNGRELEIELHYIVVKVNGRWFIQEIIIR	1.57
DEEKTIHNHLMELVVRAFLTGDEELWSNLADPDTKEIIDGKTNVGREEVAKFWKDLVHKFKNARWHITIKRVDVIDGQVRQNSHLEIRYGDKHFHLETEDHLYVINGRLKQFEFRVN	1.18
TEMNDEARRAMKDFIEHLRTGDEDRLDKMLDPHVRMEINGRTFHGREDAIKWHREIRLEDITVKFSTIQGDKVRFFGEEDGIIDGQRHKTEVELIIRKVNGRWFIHEIQVH	1.27
DEERKIVLESVRLWLDEWETGDESALEKLMDPNVRVIIGDKTVHGREQMIKFLREWLTRYDHLEIKLRDIKVIGDKIHVESEFRYHIGDKELSHRTNVVLKIVDGKLKSVRVDFE	1.93
SEDERVAEELLRLLSEYLKTGDEQIVTELLDPHTKMIIDGQTHIGMDVWQMLRKHIRVKNSDVHDVKFVDGRMHLDMRVHGHVNGVDVTRRLHVHTHKINGRWHIKEIHIE	1.46
DELKSLSRKATEDIVELIITGDEKMLREYMDPNVRVDINGQEIHGREIFFEYIRHLLEHMGVDHLKLDRMEVRDINGQLYIHFRGTTVFNGRTYDEELIWVIVKIDGRWYIEQIEIRFE	1.3
DEEEELSKRLVELLLKLLKTGNEEELIKNADPHAKVQIRINGREFIHHGWEAFSHLWRHYIIKFKNIRIHDRHMEIQGDWVHIHSEEQIGDKRIEVEIRIQIINGVQKNVHIDIHEH	1.47
DETKHHHDRLFEEEAKAIATGDWEKLKELLDPHVRFEVGNKEIHGMETVLEEIERDLKRLGVTKQEVRIVIDKVDIQGEKIVSDFTLRLHFDGVTIEHKVHVIEVKIDGRWLIQSIRIE	1.53
DEDTEIALKLHRLILHFIHTGDWENFAKYLDPRTKLHVGEFNNVGMEEIRKTWKHLRLRIDMYDERRVEVIDGRLHVEGEIRSTVHIGDKELHFERDSNFILVVINGRVKRIEINIV	1.47
SEEEKEDWEWMEIFYDALHTGDEKLIRDNADPNVKFRQGDYHSVGREEYIRKIDELRRRLGITKIRLEIDHVEVINGRSNVDTTIHVNGREIRSTLHVQVVNGRIKEIEIHLR	1.04
TEEEEHALTLMKEWVHNHETGNEDHLSHLMDPNYRWVQGDWHLHGMEDFSRELNKTLDKMGMTEHLRLKDFKVQGNFVEVIGTQHLHINGRTIKIDSTLKLNVINGRIHEVRYTLH	0.77
SEEEDLFRKIIELLLRLSKTGDEETWRRLMDPHARLEINGRIFHGREYAERFMTQFDHIHSIEIKDMHIYNGKVEEHGHVDGIVNGRRTKHDMVFILVKVDGVWLIEEVVVR	1.39
DEEEHALWHWFQEHVHALETGDEDTLRELADPNVRLDINGKRIHGRHQLEHLIHRIDHMRIDDYKIDHVDRQGEKVIIDGTFHGKIIQGDKTIHMHTRVIIILLKVDGQWRLKSEQID	1.12
EDEEQHTEELAHIFTEDYFTGDESSLERYLDPHVRLRIEYGDWEFSVHGRERAVDKIHWTMKQMGVKHVYLRHIRVQGDKVELNLELRVGDKVREQRIEIKVVNGRIKLVNIVIH	2.15
SEDDHELEHAARRHFRDFWTGDWKSISRFLDPDAKVELLVNGQHIEIHGREQIIEQMLRIPNLRFELKRVHTEIYGEKMHVHVRGVVEFDGVREDVVLIFIFEKFNGRWHISKESREFR	0.35
